{"source": "paper doi:10.1101/2020.07.30.230052", "about": "(bioRxiv, 2020)", "molecules": {"B1": {"name": "PBP4 (penicillin binding protein 4, DD-carboxy/endopeptidase) of Escherichia coli, wild type, purified (enzyme)", "chain": "ANVDEYITQLPAGANLALMVQKVGASAPAIDYHSQQMALPASTQKVITALAALIQLGPDFRFTTTLETKGNVENGVLKGDLVARFGADPTLKRQDIRNMVATLKKSGVNQIDGNVLIDTSIFASHDKAPGWPWNDMTQCFSAPPAAAIVDRNCFSVSLYSAPKPGDMAFIRVASYYPVTMFSQVRTLPRGSAEAQYCELDVVPGDLNRFTLTGCLPQRSEPLPLAFAVQDGASYAGAILKDELKQAGITWSGTLLRQTQVNEPGTVVASKQSAPLHDLLKIMLKKSDNMIADTVFRMIGHARFNVPGTWRAGSDAVRQILRQQAGVDIGNTIIADGSGLSRHNLIAPATMMQVLQYIAQHDNELNFISMLPLAGYDGSLQYRAGLHQAGVDGKVSAKTGSLQGVYNLAGFITTASGQRMAFVQYLSGYAVEPADQRNRRIPLVRFESRLYKDIYQNN"}}, "key": {"[1]": {"molecular_target": "PBP4 lacking domain 3 (PBP4ΔD3), purified (Escherichia coli) (UniProt P24228)", "assay": "AUC"}, "[2]": {"molecular_target": "LpoA, full length version, purified (Escherichia coli) (UniProt P45464)", "sequence (P45464 27-678)": "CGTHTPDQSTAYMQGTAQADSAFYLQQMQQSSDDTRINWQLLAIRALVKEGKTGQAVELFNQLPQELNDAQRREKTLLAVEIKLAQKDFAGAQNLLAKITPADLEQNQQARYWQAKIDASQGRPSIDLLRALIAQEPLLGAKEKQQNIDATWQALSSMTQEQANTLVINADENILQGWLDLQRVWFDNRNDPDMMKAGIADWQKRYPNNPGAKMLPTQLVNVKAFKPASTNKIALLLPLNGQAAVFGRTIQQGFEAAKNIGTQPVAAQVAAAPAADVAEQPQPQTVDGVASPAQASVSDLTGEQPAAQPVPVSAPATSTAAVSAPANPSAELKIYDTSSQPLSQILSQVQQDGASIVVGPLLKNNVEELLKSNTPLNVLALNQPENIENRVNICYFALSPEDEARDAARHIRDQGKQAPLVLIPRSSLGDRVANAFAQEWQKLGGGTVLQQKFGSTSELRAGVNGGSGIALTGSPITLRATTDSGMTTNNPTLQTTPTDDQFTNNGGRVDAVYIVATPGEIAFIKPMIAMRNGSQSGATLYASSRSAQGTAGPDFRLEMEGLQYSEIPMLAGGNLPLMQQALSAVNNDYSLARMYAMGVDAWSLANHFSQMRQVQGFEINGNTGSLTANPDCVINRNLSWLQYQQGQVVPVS", "assay": "MST"}, "[3]": {"molecular_target": "N-terminal domain of LpoA (LpoA^N, residues G28-T256) (Escherichia coli) (UniProt P45464)", "sequence (P45464 28-256)": "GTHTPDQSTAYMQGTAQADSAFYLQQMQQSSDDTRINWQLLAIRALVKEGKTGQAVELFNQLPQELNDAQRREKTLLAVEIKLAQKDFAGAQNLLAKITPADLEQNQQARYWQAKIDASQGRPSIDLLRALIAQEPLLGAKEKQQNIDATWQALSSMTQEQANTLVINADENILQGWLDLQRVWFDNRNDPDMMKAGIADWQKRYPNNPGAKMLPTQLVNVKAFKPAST", "assay": "MST"}, "[4]": {"molecular_target": "B1", "assay": "pull-down"}, "AUC": {"molecular_target": "the molecule itself", "assay": "AUC"}}, "data": [{"molecule": "PBP4 lacking domain 3 (PBP4ΔD3), purified (from UniProt P24228 21-477) (enzyme)", "values": [{"measurement": "stoichiometry N", "setting": "[1]", "value": 2}, {"measurement": "Kd", "setting": "[2]", "value": 153, "unit": "nM"}, {"measurement": "fold decrease of app. KD against wild-type PBP4", "setting": "[3]", "value": 50, "unit": "fold"}]}, {"molecule": "Oligo-histidine tagged NlpI (His-NlpI) (natural protein, Escherichia coli, UniProt P0AFB1 19-294, looked up) CSNTSWRKSEVLAVPLQPTLQQEVILARMEQILASRALTDDERAQLLYERGVLYDSLGLRALARNDFSQALAIRPDMPEVFNYLGIYLTQAGNFDAAYEAFDSVLELDPTYNYAHLNRGIALYYGGRDKLAQDDLLAFYQDDPNDPFRSLWLYLAEQKLDEKQAKEVLKQHFEKSDKEQWGWNIVEFYLGNISEQTLMERLKADATDNTSLAEHLSETNFYLGKYYLSLGDLDSATALFKLAVANNVHNFVEHRYALLELSLLGQDQDDLAESDQQ", "values": [{"measurement": "binding result", "setting": "[4]", "value": "binds"}]}, {"molecule": "B1", "values": [{"measurement": "stoichiometry N", "setting": "AUC", "value": 2}]}]}
